Test results taken from patent US20080200416A1 (Stanford University, published 2008).

Molecular target: T1, SHP-2 (mouse, UniProt P35235 2-593, limits assumed)
T1 construct: Endogenous protein probed in anti-Lck immunoprecipitates; also called tyrosine phosphatase SHP-2
T1 sequence (looked up): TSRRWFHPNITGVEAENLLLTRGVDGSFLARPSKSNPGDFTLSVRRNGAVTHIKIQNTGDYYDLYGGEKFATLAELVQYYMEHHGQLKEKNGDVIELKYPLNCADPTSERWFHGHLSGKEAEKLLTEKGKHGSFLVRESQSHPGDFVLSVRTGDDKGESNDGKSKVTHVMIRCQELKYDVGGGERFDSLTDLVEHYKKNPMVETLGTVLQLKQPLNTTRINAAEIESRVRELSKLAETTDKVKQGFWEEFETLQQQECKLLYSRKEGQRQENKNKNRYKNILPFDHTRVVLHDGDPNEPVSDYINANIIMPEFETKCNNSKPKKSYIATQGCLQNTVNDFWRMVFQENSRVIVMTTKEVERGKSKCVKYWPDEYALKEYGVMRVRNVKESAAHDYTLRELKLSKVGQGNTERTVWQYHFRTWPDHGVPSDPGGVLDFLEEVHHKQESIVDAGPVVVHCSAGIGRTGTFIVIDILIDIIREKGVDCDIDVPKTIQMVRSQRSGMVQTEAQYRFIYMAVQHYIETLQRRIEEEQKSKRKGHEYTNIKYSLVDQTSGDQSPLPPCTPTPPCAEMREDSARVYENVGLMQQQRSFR
Test: co-immunoprecipitation with anti-Lck from 5C.C7 T cell lysates, Western blot
Procedure: (A) Western blot analyses of anti-Lck immuno-precipitates to detect site-specific phosphorylation. Phosphorylation of Lck at the activating Y394 or inhibitory Y505 before antigen stimulation were probed with specific antibodies. […] Membranes were stripped and re-probed for Lck as loading controls. (B) Induction of ERK phosphorylation by the antagonist MCC 99R. Virally-infected T cells were mixed with CH27 cells alone or CH27 cells preloaded with 10 μM MCC 99R, spun down to facilitate rapid T:APC contact, incubated at 37° C. for 5 minutes, and analyzed for ERK phosphorylation by Phosphor-Flow. Cells were gated on GFP and CD4 for virally-infected T cells. […] (D) Western blot analyses of anti-Lck immuno-precipitates to detect Lck serine phosphorylation before antigen stimulation. […] Double selected 5C.C7 T cells were mixed with peptide pre-loaded CH27 cells (10 μM MCC 99R or 1 μM MCC) by quick spin and incubated at 37° C. for 5 mins. SHP-1 was co-precipitated with Lck whereas SHP-2 was undetectable under the same condition.

binding result: no binding
B1: Lck (enzyme, mouse, UniProt P06240 2-509, looked up)
chain: GCVCSSNPEDDWMENIDVCENCHYPIVPLDSKISLPIRNGSEVRDPLVTYEGSLPPASPLQDNLVIALHSYEPSHDGDLGFEKGEQLRILEQSGEWWKAQSLTTGQEGFIPFNFVAKANSLEPEPWFFKNLSRKDAERQLLAPGNTHGSFLIRESESTAGSFSLSVRDFDQNQGEVVKHYKIRNLDNGGFYISPRITFPGLHDLVRHYTNASDGLCTKLSRPCQTQKPQKPWWEDEWEVPRETLKLVERLGAGQFGEVWMGYYNGHTKVAVKSLKQGSMSPDAFLAEANLMKQLQHPRLVRLYAVVTQEPIYIITEYMENGSLVDFLKTPSGIKLNVNKLLDMAAQIAEGMAFIEEQNYIHRDLRAANILVSDTLSCKIADFGLARLIEDNEYTAREGAKFPIKWTAPEAINYGTFTIKSDVWSFGILLTEIVTHGRIPYPGMTNPEVIQNLERGYRMVRPDNCPEELYHLMMLCWKERPEDRPTFDYLRSVLDDFFTATEGQYQPQP
notes: Endogenous protein in T cell lysates; the phosphorylation state varies with the condition
